Values belong to the binder of their own block, whether it stands above or below them.
Key:
[1] = target: T1, human CD32b expressed endogenously on human cells (human, UniProt P31994 43-310); assay: flow cytometry on BJAB cells; biotinylated hIgG1 [N297A] antibody, streptavidin-PE, GMFI
T1 construct: whole, on cells; The background says that CD32b1 is the form on lymphoid cells and CD32b2 the form on myeloid cells; also called CD32b on primary human B cells, plasma cells, macrophages, BJAB, KARPAS422 and Daudi cells
T1 sequence (looked up): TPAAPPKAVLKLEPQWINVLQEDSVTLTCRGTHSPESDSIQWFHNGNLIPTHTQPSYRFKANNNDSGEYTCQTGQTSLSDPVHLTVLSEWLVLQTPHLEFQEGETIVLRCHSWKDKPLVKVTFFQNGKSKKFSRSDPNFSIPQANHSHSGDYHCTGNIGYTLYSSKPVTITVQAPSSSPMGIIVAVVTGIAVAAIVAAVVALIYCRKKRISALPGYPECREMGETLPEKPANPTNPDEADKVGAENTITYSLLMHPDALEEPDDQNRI
Description: The binding of huCD32b specific antibodies to the BJAB cell line was evaluated by flow cytometry. BJAB cells were collected and suspended in FACS Buffer (PBS1× containing 2% BSA, 2 mM EDTA), counted and suspended at 0.25×10⁶ cells per ml. 50'000 cells/well (200 μl) were then dispensed in V-bottomed 96 well plates. Plates were spun for 5 min at 1500 rpm and the supernatant discarded. […] Biotinylation of antibodies was performed using the Lightning-Link biotin conjugation kit (Type A) from Innova Biosciences (Cat. No 704-0010) according to the supplier's instructions. After 2 successive washes with FACS buffer, cells were suspended in 50 μl FACS buffer containing a 1/500 dilution of Streptavidin-PE (Invitrogen 521388) and further incubated for 20 min at 4° C. Cells were washed twice and suspended in 200 μl FACS buffer and acquired on a FACS Fortessa. The Geometric Mean Fluorescence (GMFI in the PE channel) was used as a measure of the binding intensity of each antibody.

[2] = target: T2, huCD64 (Fc gamma RI) expressed on stable CHO cells (human, UniProt P12314 16-374); assay: flow cytometry on stable CHO cells expressing huCD64; hIgG1 [N297A] antibody, GMFI; the text ascribes this binding to the Fc portion
T2 construct: whole, on cells; also called CHO-huCD64
T2 sequence (P12314 16-374): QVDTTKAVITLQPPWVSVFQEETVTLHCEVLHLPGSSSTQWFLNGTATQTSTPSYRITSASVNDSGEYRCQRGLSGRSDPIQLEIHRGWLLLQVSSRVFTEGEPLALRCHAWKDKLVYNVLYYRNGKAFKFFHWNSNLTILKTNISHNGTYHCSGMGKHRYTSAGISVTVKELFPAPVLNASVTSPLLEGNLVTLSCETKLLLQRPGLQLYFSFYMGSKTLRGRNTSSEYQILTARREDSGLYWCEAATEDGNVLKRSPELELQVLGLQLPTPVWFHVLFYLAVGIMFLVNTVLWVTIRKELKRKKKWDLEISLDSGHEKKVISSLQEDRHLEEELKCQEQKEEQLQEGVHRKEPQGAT
Description: (§1) The binding of huCD32b specific antibodies was evaluated by flow cytometry using stable CHO cell lines expressing the low affinity human CD16 variants (i.e huCD16a or huCD16b variants) and the high affinity huCD64 (FcγRI). CHO cells transfected with huCD16a variants were also transfected with the common Fcγ chain in order to allow for surface expression. CHO cells were collected following detachment with PBS containing 2 mM EDTA and pelleted. Cell pellets were washed once in PBS and suspended in FACS Buffer (PBS1× containing 2% BSA, 2 mM EDTA and 0.1% NaN3), counted and suspended at 0.25×10⁶ cells per ml. 50'000 cells/well (200 μl) were then dispensed in V-bottomed 96 well plates. Plates were spun for 5 min at 1600 rpm and the supernatant discarded. […] After 3 successive washes with FACS buffer, cells were suspended in 50 μl FACS buffer containing a 1/100 dilution of the F(ab′)2 anti-human F(ab′)2-PE (Jackson Immunoresearch#109-116-097) and further incubated 30 min at 4° C. Cells were washed twice and suspended in 200 μl FACS buffer and acquired on a FACS Canto II (acquisition of 5000 cells in the live cell gate). The Geometric Mean Fluorescence (GMFI in the PE channel) was used as a measure of the binding intensity of each antibody.

[3] = target: T3, MW82 (huCD32a H131) (human, UniProt P12318); assay: flow cytometry on stable CHO cells expressing huCD32a H131 (MW82); hIgG1 [N297A] antibody, GMFI
T3 sequence (receptor, looked up): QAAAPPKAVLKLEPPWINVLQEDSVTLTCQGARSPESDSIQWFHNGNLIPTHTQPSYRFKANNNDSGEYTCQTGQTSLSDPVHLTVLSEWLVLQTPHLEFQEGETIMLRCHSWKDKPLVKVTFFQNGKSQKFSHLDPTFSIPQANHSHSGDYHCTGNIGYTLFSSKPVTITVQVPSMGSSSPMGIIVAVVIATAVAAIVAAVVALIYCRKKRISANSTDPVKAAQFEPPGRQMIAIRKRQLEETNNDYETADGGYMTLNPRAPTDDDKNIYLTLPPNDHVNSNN
Description: as §1, with “HuCD32b and huCD32a have high degree” for “The binding”, “sequence homology. […]” for “huCD32b specific antibodies was evaluated by flow cytometry using stable CHO cell lines expressing the low affinity human CD16 variants (i.e huCD16a or huCD16b variants) and the high affinity huCD64 (FcγRI). CHO cells transfected with huCD16a variants were also transfected with the common Fcγ chain in order to allow for surface expression.”

[4] = target: T4, WT human CD32b1 expressed on stably transfected cells (human, UniProt P31994 43-310); assay: flow cytometry on stable CHO cells expressing huCD32b (MW83); hIgG1 [N297A] antibody, GMFI
T4 construct: also called huCD32b; WT CD32b
T4 sequence: T1 sequence (looked up)
Description: as §1, with “HuCD32b and huCD32a have high degree” for “The binding”, “sequence homology. […]” for “huCD32b specific antibodies was evaluated by flow cytometry using stable CHO cell lines expressing the low affinity human CD16 variants (i.e huCD16a or huCD16b variants) and the high affinity huCD64 (FcγRI). CHO cells transfected with huCD16a variants were also transfected with the common Fcγ chain in order to allow for surface expression.”

[5] = target: T1, human CD32b expressed endogenously on …; assay: flow cytometry titration (GMFI), biotinylated IgG1 [N297A] on purified primary human B cells, CD20+ gate
Description: Plates were spun for 5 min at 1500 rpm and the supernatant discarded. […] Biotinylation of antibodies was performed using the Lightning-Link biotin conjugation kit (Type A) from Innova Biosciences (Cat. No 704-0010) according to the supplier's instructions. […] Cells were washed twice and suspended in 200 μl FACS buffer and acquired on a FACS Fortessa.

[6] = target: T4, WT human CD32b1 expressed on stably …; assay: flow cytometry, Alexa-647 labelled hIgG1 [N297A] antibody, ΔMFI; stable BJAB cells expressing huCD32b
[7] = target: T5, huCD32b-deglyco (human, UniProt P31994 43-222, limits assumed, deglycosylated (deglyco) (so in the source)); assay: SPR (Biacore T200), IgG amine-coupled on the chip, huCD32b-deglyco analyte 0.61-5000 nM, 1:1 binding model; single experiment
T5 construct: Soluble analyte of the SPR assay; also called huCD32b receptor (SPR analyte); human CD32b
T5 sequence: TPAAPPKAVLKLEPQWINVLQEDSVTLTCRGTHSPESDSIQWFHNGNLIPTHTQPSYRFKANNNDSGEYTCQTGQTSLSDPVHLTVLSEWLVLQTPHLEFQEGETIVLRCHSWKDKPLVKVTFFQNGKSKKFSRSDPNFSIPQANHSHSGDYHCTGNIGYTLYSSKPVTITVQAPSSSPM
Description: (§2) Three independent direct binding assays with IgGs covalently immobilized on the biosensor and huCD32b receptor serving as analyte were performed to determine the binding affinities of the IgGs for huCD32b. Kinetic data were acquired by subsequent injections of analyte dilution series on all flow cells. Flow cell 1 (chip 1) served as a reference.
(§3) A dilution series of huCD32b-deglyco, 0.61-5000 nM (1:2 dilution series) in running buffer was injected over the surface (flow rate: 30 μl/min, association time: 60 sec, dissociation time: 120 sec). The chip surface was regenerated with one basic wash step before each analyte injection (30 μl/min; contact time: 30 sec, stabilization period: 250 sec). Data were evaluated using the Biacore T200 evaluation software version 1.0. The raw data were double referenced, i.e. the response of the measuring flow cell was corrected for the response of the reference flow cell, and in a second step the response of a blank injection was subtracted. Outlier sensorgrams were removed if necessary. The sensorgrams were fitted by applying a 1:1 binding model to calculate kinetic rate constants and dissociation equilibrium constants. Rmax was set at global whereas RI was fitted locally. Data were processed individually for each run. The generated values were used to calculate average values and standard deviations of the respective kinetic constants.

[8] = target: T5, huCD32b-deglyco; assay: SPR (Biacore T200), IgG amine-coupled on the chip, huCD32b-deglyco analyte 0.61-5000 nM, 1:1 binding model; mean and standard deviation of the runs
Description: as §2, §3

binding affinity (printed 'BJABs:') [1]: 4.2 nM
binding result [2]: binds
B1: NOV0308_N297A (antibody, human IgG1, lambda, N297A)
heavy: not shown
light: DIELTQPPSVSVSPGQTASITCSGDNLGSKYVHWYQQKPGQAPVLVIYDDNKRPSGIPERFSGSNSGNTATLTISGTQAEDEADYYCQSWTLGNWVFGGGTKLTVLGQPKAAPSVTLFPPSSEELQANKATLVCLISDFYPGAVTVAWKADSSPVKAGVETTTPSKQSNNKYAASSYLSLTPEQWKSHRSYSCQVTHEGSTVEKTVAPTECS
notes: also called NOV0308 on a human IgG1 [N297A] scaffold

binding affinity (printed 'BJABs:') [1]: 19 nM
binding result [3]: binds
binding result [2]: binds
B2: NOV1218 (antibody, human IgG1, lambda, N297A)
heavy chain: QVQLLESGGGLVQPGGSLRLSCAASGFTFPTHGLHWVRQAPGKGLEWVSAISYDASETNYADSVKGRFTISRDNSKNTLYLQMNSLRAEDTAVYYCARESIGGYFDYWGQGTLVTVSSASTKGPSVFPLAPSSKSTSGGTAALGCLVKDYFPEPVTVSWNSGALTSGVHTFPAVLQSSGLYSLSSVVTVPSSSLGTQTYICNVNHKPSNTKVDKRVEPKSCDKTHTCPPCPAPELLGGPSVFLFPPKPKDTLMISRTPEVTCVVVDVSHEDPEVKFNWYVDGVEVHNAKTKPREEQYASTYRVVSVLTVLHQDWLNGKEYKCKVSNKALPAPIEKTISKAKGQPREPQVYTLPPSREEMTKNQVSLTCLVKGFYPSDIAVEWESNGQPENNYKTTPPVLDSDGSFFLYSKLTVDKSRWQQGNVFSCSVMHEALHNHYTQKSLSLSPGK
light chain: SYELTQPLSVSVALGQTARITCSGDALGKNTVSWYQQKPGQAPVLVIYDDTDRPSGIPERFSGSNSGNTATLTISRAQAGDEADYYCSSTDLSTVVFGGGTKLTVLGQPKAAPSVTLFPPSSEELQANKATLVCLISDFYPGAVTVAWKADSSPVKAGVETTTPSKQSNNKYAASSYLSLTPEQWKSHRSYSCQVTHEGSTVEKTVAPTECS
notes: also called NOV1218_N297A; NOV1218 N297A

binding affinity (printed 'BJABs:') [1]: 110 nM
EC50 (read off the curve) [4]: ~30 nM
binding result [3]: no binding (tested: 1000 nM)
binding result [2]: binds
B3: NOV1219 (antibody, human IgG1, lambda, N297A)
heavy chain: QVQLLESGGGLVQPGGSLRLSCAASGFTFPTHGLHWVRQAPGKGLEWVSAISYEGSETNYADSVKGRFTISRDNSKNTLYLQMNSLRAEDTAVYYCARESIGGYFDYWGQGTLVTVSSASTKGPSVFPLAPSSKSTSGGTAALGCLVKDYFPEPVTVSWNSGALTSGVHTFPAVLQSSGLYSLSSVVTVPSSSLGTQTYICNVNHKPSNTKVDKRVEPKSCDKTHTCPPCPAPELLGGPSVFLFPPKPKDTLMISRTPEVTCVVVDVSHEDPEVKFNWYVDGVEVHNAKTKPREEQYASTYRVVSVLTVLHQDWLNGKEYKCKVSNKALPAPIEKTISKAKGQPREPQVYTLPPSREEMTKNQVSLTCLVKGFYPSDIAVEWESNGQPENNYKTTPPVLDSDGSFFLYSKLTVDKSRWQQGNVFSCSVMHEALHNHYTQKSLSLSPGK
light chain: B2 light chain
notes: also called NOV1219_N297A; NOV1219 on a human IgG1 [N297A] scaffold

binding affinity (printed 'BJABs:') [1]: 2.4 nM
binding affinity [5]: 5.4 nM
binding result [3]: binds
binding result [2]: binds
B4: NOV0281_N297A (antibody, human IgG1, lambda, N297A)
heavy: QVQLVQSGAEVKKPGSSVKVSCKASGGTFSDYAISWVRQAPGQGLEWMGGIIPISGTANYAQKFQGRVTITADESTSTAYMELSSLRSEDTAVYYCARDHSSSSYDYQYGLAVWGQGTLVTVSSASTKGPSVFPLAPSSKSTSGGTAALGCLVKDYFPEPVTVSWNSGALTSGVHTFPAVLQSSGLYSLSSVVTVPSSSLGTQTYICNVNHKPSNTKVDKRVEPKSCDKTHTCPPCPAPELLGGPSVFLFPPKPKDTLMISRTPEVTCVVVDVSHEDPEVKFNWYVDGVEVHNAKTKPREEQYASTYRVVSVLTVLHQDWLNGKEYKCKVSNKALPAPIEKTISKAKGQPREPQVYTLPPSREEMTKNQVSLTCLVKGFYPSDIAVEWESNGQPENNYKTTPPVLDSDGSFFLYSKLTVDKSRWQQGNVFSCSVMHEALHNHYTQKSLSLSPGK
light: DIELTQPPSVSVSPGETASITCSGDKLGDYYVHWYQQKPGQAPVLVIYQDSKRPSGIPERFSGSNSGNTATLTISGTQAEDEADYYCGATDLSPWSIVFGGGTKLTVLGQPKAAPSVTLFPPSSEELQANKATLVCLISDFYPGAVTVAWKADSSPVKAGVETTTPSKQSNNKYAASSYLSLTPEQWKSHRSYSCQVTHEGSTVEKTVAPTECS
notes: also called NOV0281 on a human IgG1 [N297A] scaffold

binding affinity (printed 'BJABs:') [1]: 0.7 nM
binding affinity [5]: 1.4 nM
binding result [2]: binds
B5: NOV1216_N297A (antibody, human IgG1, lambda, N297A)
heavy: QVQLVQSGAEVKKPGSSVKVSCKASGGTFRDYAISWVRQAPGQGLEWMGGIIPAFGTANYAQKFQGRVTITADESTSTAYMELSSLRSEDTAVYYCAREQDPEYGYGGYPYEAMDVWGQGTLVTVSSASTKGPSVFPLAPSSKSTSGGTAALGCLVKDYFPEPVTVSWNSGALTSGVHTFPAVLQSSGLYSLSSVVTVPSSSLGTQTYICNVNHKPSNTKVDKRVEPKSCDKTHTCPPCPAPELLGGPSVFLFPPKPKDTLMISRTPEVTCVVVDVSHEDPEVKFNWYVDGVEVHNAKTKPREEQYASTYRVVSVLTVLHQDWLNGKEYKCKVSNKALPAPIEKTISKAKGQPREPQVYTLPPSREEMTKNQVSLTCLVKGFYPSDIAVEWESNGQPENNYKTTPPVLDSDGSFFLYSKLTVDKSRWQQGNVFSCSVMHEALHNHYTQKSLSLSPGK
light: SYELTQPLSVSVALGQTARITCSGDNIPQHSVHWYQQKPGQAPVLVIYDDTERPSGIPERFSGSNSGNTATLTISRAQAGDEADYYCSSWDSSMDSVVFGGGTKLTVLGQPKAAPSVTLFPPSSEELQANKATLVCLISDFYPGAVTVAWKADSSPVKAGVETTTPSKQSNNKYAASSYLSLTPEQWKSHRSYSCQVTHEGSTVEKTVAPTECS
notes: Human IgG1 with N297A (Fc silent); also called Fc silent NOV1216

binding result [6]: binds
B6: NOV2112 N297A (antibody, human IgG1, lambda, N297A)
heavy chain: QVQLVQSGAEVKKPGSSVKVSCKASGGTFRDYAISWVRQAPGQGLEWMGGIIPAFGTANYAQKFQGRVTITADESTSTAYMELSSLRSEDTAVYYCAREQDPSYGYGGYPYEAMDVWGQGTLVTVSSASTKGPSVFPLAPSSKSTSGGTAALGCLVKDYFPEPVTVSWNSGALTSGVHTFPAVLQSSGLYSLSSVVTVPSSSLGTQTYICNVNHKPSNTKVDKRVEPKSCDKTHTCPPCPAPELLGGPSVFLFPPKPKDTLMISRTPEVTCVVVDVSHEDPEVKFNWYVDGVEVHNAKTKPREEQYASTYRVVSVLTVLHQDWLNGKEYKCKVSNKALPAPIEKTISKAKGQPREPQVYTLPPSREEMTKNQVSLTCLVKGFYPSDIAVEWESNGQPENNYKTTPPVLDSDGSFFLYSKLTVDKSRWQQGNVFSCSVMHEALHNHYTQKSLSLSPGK
light chain: B5 light

binding result [6]: binds
B7: NOV2107_N297A (antibody, human IgG1, lambda, N297A)
heavy: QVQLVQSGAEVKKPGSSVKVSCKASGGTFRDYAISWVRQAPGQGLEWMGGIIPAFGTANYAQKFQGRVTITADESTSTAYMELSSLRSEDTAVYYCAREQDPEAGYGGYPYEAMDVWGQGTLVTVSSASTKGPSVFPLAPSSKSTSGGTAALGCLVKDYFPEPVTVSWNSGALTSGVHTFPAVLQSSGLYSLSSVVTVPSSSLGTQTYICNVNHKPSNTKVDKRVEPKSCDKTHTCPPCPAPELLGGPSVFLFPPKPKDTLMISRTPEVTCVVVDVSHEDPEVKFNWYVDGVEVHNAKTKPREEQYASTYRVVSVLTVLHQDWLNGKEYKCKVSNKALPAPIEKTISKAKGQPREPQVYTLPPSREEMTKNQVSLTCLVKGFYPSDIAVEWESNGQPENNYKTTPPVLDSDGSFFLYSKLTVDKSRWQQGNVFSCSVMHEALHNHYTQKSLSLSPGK
light: B5 light
notes: CDR-H3 mutant of NOV1216; human IgG1 with N297A; also called Fc silent N297A variant of NOV2107

Kd [7]: 16 nM
koff [7]: 0.11 s⁻¹
kon [7]: 6.8e+06 M⁻¹ s⁻¹
B8: afucosylated NOV2108 (antibody, human IgG1, lambda)
heavy: not shown
light: B5 light
modifications: afucosylated: N-glycan structure lacking core fucose
notes: also called NOV2108, afucosylated antibody; NOV2108 (afucosylated format)

Kd [8]: 18 nM
koff [8]: 0.29 s⁻¹
kon [8]: 1.5e+07 M⁻¹ s⁻¹
B9: NOV2108_N297A (antibody, human IgG1, lambda, N297A)
heavy: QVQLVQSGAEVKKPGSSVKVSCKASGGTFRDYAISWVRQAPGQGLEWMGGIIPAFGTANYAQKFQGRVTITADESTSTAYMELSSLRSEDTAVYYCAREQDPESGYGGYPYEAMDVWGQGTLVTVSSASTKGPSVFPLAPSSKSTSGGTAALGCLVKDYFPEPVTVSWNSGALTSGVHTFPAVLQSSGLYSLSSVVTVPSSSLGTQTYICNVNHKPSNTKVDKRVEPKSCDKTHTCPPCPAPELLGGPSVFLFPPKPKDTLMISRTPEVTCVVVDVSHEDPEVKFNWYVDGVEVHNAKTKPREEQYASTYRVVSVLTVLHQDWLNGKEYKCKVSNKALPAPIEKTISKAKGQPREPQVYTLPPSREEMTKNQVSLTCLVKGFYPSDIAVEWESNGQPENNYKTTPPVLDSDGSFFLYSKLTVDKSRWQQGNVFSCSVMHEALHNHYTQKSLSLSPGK
light: B5 light
notes: CDR-H3 mutant of NOV1216; human IgG1 with N297A; Alexa Fluor 647-labelled in flow cytometry; also called Fc silent NOV2108 [N297A]

From US20170198040A1 (Novartis, published 2017)
